Source: IntAct's records for PubMed 23892456

B1: Homeobox protein NANOG (Mus musculus), Q80Z64 (parent)
chain: MSVGLPGPHSLPSSEEASNSGNASSMPAVFHPENYSCLQGSATEMLCTEAASPRPSSEDLPLQGSPDSSTSPKQKLSSPEADKGPEEEENKVLARKQKMRTVFSQAQLCALKDRFQKQKYLSLQQMQELSSILNLSYKQVKTWFQNQRMKCKRWQKNQWLKTSNGLIQKGSAPVEYPSIHCSYPQGYLVNASGSLSMWGSQTWTNPTWSSQTWTNPTWNNQTWTNPTWSSQAWTAQSWNGQPWNAAPLHNFGEDFLQPYVQLQQNFSASDLEVNLEATRESHAHFSTPQALELFLNYSVTPPGEI

Variants of: B1
Conditions: with sox2_mouse Sox2, P48432
Sequence of sox2_mouse Sox2, P48432 (P48432 whole entry): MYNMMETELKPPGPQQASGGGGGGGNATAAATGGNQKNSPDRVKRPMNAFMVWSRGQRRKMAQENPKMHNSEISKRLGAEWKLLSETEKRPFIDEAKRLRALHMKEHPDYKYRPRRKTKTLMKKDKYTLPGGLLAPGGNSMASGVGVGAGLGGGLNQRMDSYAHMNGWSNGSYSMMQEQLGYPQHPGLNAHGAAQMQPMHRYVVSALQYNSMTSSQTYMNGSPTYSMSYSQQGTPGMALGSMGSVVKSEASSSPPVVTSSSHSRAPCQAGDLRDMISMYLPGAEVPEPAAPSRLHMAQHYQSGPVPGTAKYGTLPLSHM

effect of a mutation on the interaction | Variant
disrupting interaction | MSVGLPGPHSLPSSEEASNSGNASSMPAVFHPENYSCLQGSATEMLCTEAASPRPSSEDLPLQGSPDSSTSPKQKLSSPEADKGPEEEENKVLARKQKMRTVFSQAQLCALKDRFQKQKYLSLQQMQELSSILNLSYKQVKTWFQNQRMKCKRWQKNQWLKTSNGLIQKGSAPVEYPSIHCSYPQGYLVNASGSLSMAGSQTATNPTASSQTATNPTANNQTATNPTASSQAATAQSANGQPANAAPLHNFGEDFLQPYVQLQQNFSASDLEVNLEATRESHAHFSTPQALELFLNYSVTPPGEI [W198A;W203A;W208A;W213A;W218A;W223A;W228A;W233A;W238A;W243A]
